Primed or numbered codes have the meaning given here. Where no end group is shown, it is not given here. SUMO″ = SUMO fusion tag (N-terminal); SUMO = SUMO tag, N-terminal
T1: Erh1 (Erh1wt) (Schizosaccharomyces pombe, UniProt G2TRN4)
T1 construct: A region of Erh1 (residues 1–104) was amplified by PCR; made in house; host or cells: Escherichia coli BL21 (Gold)
T1 sequence (G2TRN4 1-104): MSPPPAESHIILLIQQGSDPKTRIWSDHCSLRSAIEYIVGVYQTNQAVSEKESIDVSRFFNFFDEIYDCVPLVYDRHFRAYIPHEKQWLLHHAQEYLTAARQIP

T2: Erh1 (residues 1-104), wild type (S. pombe, UniProt G2TRN4 1-104)
T2 construct: Erh1, S. pombe, residues 1-104, amplified from the S. pombe genome, in a modified pET28a vector without thrombin site (p28a); also called Erh1wt; Enhancer of rudimentary homolog 1; source: E. coli BL21 (Gold), purified (Ni-chelating resin, size-exclusion chromatography)
T2 sequence (looked up): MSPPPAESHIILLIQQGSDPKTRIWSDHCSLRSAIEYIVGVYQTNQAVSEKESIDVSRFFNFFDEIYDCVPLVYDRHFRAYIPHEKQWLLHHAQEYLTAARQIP


What was measured:
Erh1 (Erh1wt) = target: T1, Erh1 (Erh1wt); assay: Isothermal titration calorimetry (ITC), SUMO-tagged Mmi1 peptides titrated into wild-type Erh1; assay type: binding, S. pombe; conditions: for -TΔS / ΔH (binding enthalpy): Erh1wt; for ΔH (binding enthalpy): single-site model; for binding / affinity for Erh1 (in words): ITC (Supplementary Table 1; Fig. 1d, f), relative to Mmi1^95–122
Method: The titration protocol consisted of a single initial injection of 1 µl, followed by 19 injections of 2 µl SUMO-tagged Mmi1 peptides into the sample cell containing Erh1 protein. Thermodynamic data were analyzed with a single-site binding model using MicroCal PEAQ-ITC Analysis Software provided by the manufacturer.

[1] = target: T2, Erh1 (residues 1-104), wild type; assay: ITC; SUMO-tagged Mmi1 peptides titrated into Erh1 in the sample cell; MicroCal iTC200, 293 K; 20 mM Tris-HCl pH 7.5, 150 mM NaCl; single-site binding model; conditions: both partners purified
[2] = ITC, 293 K, 20 mM Tris-HCl pH 7.5, 150 mM NaCl, SUMO-tagged Mmi1 peptide

Molecule | -TΔS (Erh1 (Erh1wt); [2]) [kJ per mol] | ΔH (binding enthalpy) (Erh1 (Erh1wt); [2]) [kJ per mol] | binding / affinity for Erh1 (in words) (Erh1 (Erh1wt)) | KD (dissociation constant) (Erh1 (Erh1wt); text and figures 1e, 1f, 3e, Erh1, ITC, 293 K, 20 mM Tris-HCl pH 7.5, 150 mM NaCl, SUMO-tagged Mmi1 peptide) | Kd [1] [µM] | stoichiometry N [1]
Mmi1Y97A: Mmi1 peptide mutant Y97A ({SUMO}-GKADFSRHCTDYGHSYEWPYFRSLRRES; not fully specified) | 13.8 | -46.1±1.20 | reduced affinities for Erh1 | – | – | –
Mmi1Y114A: Mmi1 peptide mutant Y114A ({SUMO}-GKYDFSRHCTDYGHSYEWPAFRSLRRES; not fully specified) | 31.1 | -61.8±1.07 | reduced affinities for Erh1 | – | – | –
Mmi1F99A: Mmi1 peptide mutant F99A ({SUMO}-GKYDASRHCTDYGHSYEWPYFRSLRRES; not fully specified) | 8.86 | -42.6±1.83 | reduced affinities for Erh1 | – | – | –
Mmi1Y106A: Mmi1 peptide mutant Y106A ({SUMO}-GKYDFSRHCTDAGHSYEWPYFRSLRRES; not fully specified) | 11.3 | -43.8±2.35 | – | – | – | –
Mmi1H108A: Mmi1 peptide mutant H108A ({SUMO}-GKYDFSRHCTDYGASYEWPYFRSLRRES; not fully specified) | -21.2 | -9.97±2.43 | – | – | – | –
Mmi1R119A: Mmi1 peptide mutant R119A ({SUMO}-GKYDFSRHCTDYGHSYEWPYFRSLARES; not fully specified) | 13.1 | -46.3±1.28 | reduced | – | – | –
YGHSYEWPYFRSLRRES (domain or fragment, S. pombe, UniProt O74958 106-122, looked up, source: E. coli BL21 (Gold), purified (Ni-chelating resin, size-exclusion chromatography); not shown: SUMO, N-terminal, kept) [SUMO-tagged Mmi1 106-122] | – | – | – | – | 9.94 ± 1.19 | 0.89
GKADFSRHCTDYGHSYEWPYFRSLRRES (domain or fragment, S. pombe, UniProt O74958 95-122, looked up, also called Mmi1 Y97A; source: E. coli BL21 (Gold), purified (Ni-chelating resin, size-exclusion chromatography); not shown: SUMO, N-terminal, kept) [SUMO-tagged Mmi1 95-122 Y97A] | – | – | – | – | 1.75 ± 0.317 | 1.27
GKYDFSRHCTDAGHSYEWPYFRSLRRES (domain or fragment, S. pombe, UniProt O74958 95-122, looked up, also called Mmi1 Y106A; source: E. coli BL21 (Gold), purified (Ni-chelating resin, size-exclusion chromatography); not shown: SUMO, N-terminal, kept) [SUMO-tagged Mmi1 95-122 Y106A] | – | – | – | – | 1.63 ± 0.473 | 1.36
GKYDFARHCTDYGHSYEWPYFRSLRRES (domain or fragment, S. pombe, UniProt O74958 95-122, looked up, also called Mmi1 S100A; source: E. coli BL21 (Gold), purified (Ni-chelating resin, size-exclusion chromatography); not shown: SUMO, N-terminal, kept) [SUMO-tagged Mmi1 95-122 S100A] | – | – | – | – | 4.73 ± 1.62 | 1.36
GKYDFSRHCTDYGASYEWPYFRSLRRES (domain or fragment, S. pombe, UniProt O74958 95-122, looked up, also called Mmi1 H108A; source: E. coli BL21 (Gold), purified (Ni-chelating resin, size-exclusion chromatography); not shown: SUMO, N-terminal, kept) [SUMO-tagged Mmi1 95-122 H108A] | – | – | – | – | 2.78 ± 2.15 | 1.36

The next lines start with the values.

-TΔS (Erh1 (Erh1wt); [2]) [kJ per mol] | ΔH (binding enthalpy) (Erh1 (Erh1wt); [2]) [kJ per mol] | binding / affinity for Erh1 (in words) (Erh1 (Erh1wt)) | KD (dissociation constant) (Erh1 (Erh1wt); text and figures 1e, 1f, 3e, Erh1, ITC, 293 K, 20 mM Tris-HCl pH 7.5, 150 mM NaCl, SUMO-tagged Mmi1 peptide) | Kd [1] [µM] | stoichiometry N [1] | Molecule
6.04 | -36.0±3.16 | – | – | – | – | Mmi1S100A: Mmi1 peptide mutant S100A ({SUMO}-GKYDFARHCTDYGHSYEWPYFRSLRRES; not fully specified)
246 | -273±20.3 | – | – | – | – | Mmi1Y110A: Mmi1 peptide mutant Y110A ({SUMO}-GKYDFSRHCTDYGHSAEWPYFRSLRRES; not fully specified)
– | – | did not bind at all | no binding | – | – | Mmi1^95–111: truncated Mmi1 peptide, residues 95–111 ({SUMO″}-GKYDFSRHCTDYGHSYE; not fully specified)
22.8 | -53.7±1.31 | – | – | – | – | Mmi1T104A: Mmi1 peptide mutant T104A ({SUMO}-GKYDFSRHCADYGHSYEWPYFRSLRRES; not fully specified)
35.7 | -68.0±0.673 | reduced affinities for Erh1 | – | – | – | Mmi1F115A: Mmi1 peptide mutant F115A ({SUMO}-GKYDFSRHCTDYGHSYEWPYARSLRRES; not fully specified)
45.5 | -73.6±2.69 | decreased binding to Erh1 | – | – | – | Mmi1^106–122: further truncated Mmi1 fragment, residues 106–122 ({SUMO″}-YGHSYEWPYFRSLRRES; not fully specified)
– | – | – | – | 3.52 ± 0.323 | 0.97 | GKYDFSRHCTDYGHSYEWPAFRSLRRES (domain or fragment, S. pombe, UniProt O74958 95-122, looked up, also called Mmi1 Y114A; source: E. coli BL21 (Gold), purified (Ni-chelating resin, size-exclusion chromatography); not shown: SUMO, N-terminal, kept) [SUMO-tagged Mmi1 95-122 Y114A]
– | – | – | – | 3.27 ± 0.425 | 1.45 | GKYDFSRHCADYGHSYEWPYFRSLRRES (domain or fragment, S. pombe, UniProt O74958 95-122, looked up, also called Mmi1 T104A; source: E. coli BL21 (Gold), purified (Ni-chelating resin, size-exclusion chromatography); not shown: SUMO, N-terminal, kept) [SUMO-tagged Mmi1 95-122 T104A]
– | – | – | – | 15 ± 2.71 | 1 | GKYDFSRHCTDYGHSAEWPYFRSLRRES (domain or fragment, S. pombe, UniProt O74958 95-122, looked up, also called Mmi1 Y110A; source: E. coli BL21 (Gold), purified (Ni-chelating resin, size-exclusion chromatography); not shown: SUMO, N-terminal, kept) [SUMO-tagged Mmi1 95-122 Y110A]
– | – | – | – | 1.8 ± 0.121 | 0.9 | GKYDFSRHCTDYGHSYEWPYARSLRRES (domain or fragment, S. pombe, UniProt O74958 95-122, looked up, also called Mmi1 F115A; source: E. coli BL21 (Gold), purified (Ni-chelating resin, size-exclusion chromatography); not shown: SUMO, N-terminal, kept) [SUMO-tagged Mmi1 95-122 F115A]
– | – | – | – | 0.996 ± 0.355 | 1.38 | GKYDASRHCTDYGHSYEWPYFRSLRRES (domain or fragment, S. pombe, UniProt O74958 95-122, looked up, also called Mmi1 F99A; source: E. coli BL21 (Gold), purified (Ni-chelating resin, size-exclusion chromatography); not shown: SUMO, N-terminal, kept) [SUMO-tagged Mmi1 95-122 F99A]
– | – | – | – | 1.22 ± 0.27 | 1.12 | GKYDFSRHCTDYGHSYEWPYFRSLARES (domain or fragment, S. pombe, UniProt O74958 95-122, looked up, also called Mmi1 R119A; source: E. coli BL21 (Gold), purified (Ni-chelating resin, size-exclusion chromatography); not shown: SUMO, N-terminal, kept) [SUMO-tagged Mmi1 95-122 R119A]
